Results: US20150307846A1, “GROWTH FACTOR COCKTAIL TO ENHANCE OSTEOGENIC DIFFERENTIATION OF MESENCHYMAL CELLS” (University of Pennsylvania, priority 2012, published 2015)

Tested on: human periosteum derived cells (hPDCs)
Assay: Gene expression of bone markers in hPDCs in 2D culture (Taqman PCR)
Type: cell-based
Details: two stage protocol, six factors minus one, 4 days
Method: Same experimental design as in A. C) Identification of factors involved in osteoblast maturation. hPDCs were treated with OM and TGFβ1 for 6 days, followed by stimulation with GM (negative control), GM containing six factors or GM supplement with six minus one factor for 4 days. The factors are ascorbic acid (Asc. Ac., 57 μM), TNFα (50 ng/ml), IL6 (10 ng/ml), EGF (20 ng/ml), Ca (6 mM) and Pi (4 mM). To evaluate osteoblast maturation, gene expression of RUNX2, OSX, DLX5, iBSP, OC and RANKL is measured with Taqman PCR. […] Gene expression is expressed as fold increase as compared to the GM condition. […] Gene expression is expressed as fold increase as compared to hPDCs cultured in OM/TGFβ1 (n=3, error bars: standard deviations, *p≦00.05, Mann-Whitney U test).
Cell culture. […] For in vitro osteogenic differentiation assays, passage 6 to passage 9 hPDCs (pool of four different donors) were seeded at 3000 cells/cm^2 in either 96-well plates to assess proliferation and alkaline phosphatase activity or in the middle eight wells of a 24-well plate for quantifying gene expression. […]
Quantitative PCR. […]

B1: EGF: growth factor ligand, 20 ng/ml (protein, UniProt P01133 23-1207, looked up)
Pro-epidermal growth factor: PQHWSCPEGTLAGNGNSTCVGPAPFLIFSHGNSIFRIDTEGTNYEQLVVDAGVSVIMDFHYNEKRIYWVDLERQLLQRVFLNGSRQERVCNIEKNVSGMAINWINEEVIWSNQQEGIITVTDMKGNNSHILLSALKYPANVAVDPVERFIFWSSEVAGSLYRADLDGVGVKALLETSEKITAVSLDVLDKRLFWIQYNREGSNSLICSCDYDGGSVHISKHPTQHNLFAMSLFGDRIFYSTWKMKTIWIANKHTGKDMVRINLHSSFVPLGELKVVHPLAQPKAEDDTWEPEQKLCKLRKGNCSSTVCGQDLQSHLCMCAEGYALSRDRKYCEDVNECAFWNHGCTLGCKNTPGSYYCTCPVGFVLLPDGKRCHQLVSCPRNVSECSHDCVLTSEGPLCFCPEGSVLERDGKTCSGCSSPDNGGCSQLCVPLSPVSWECDCFPGYDLQLDEKSCAASGPQPFLLFANSQDIRHMHFDGTDYGTLLSQQMGMVYALDHDPVENKIYFAHTALKWIERANMDGSQRERLIEEGVDVPEGLAVDWIGRRFYWTDRGKSLIGRSDLNGKRSKIITKENISQPRGIAVHPMAKRLFWTDTGINPRIESSSLQGLGRLVIASSDLIWPSGITIDFLTDKLYWCDAKQSVIEMANLDGSKRRRLTQNDVGHPFAVAVFEDYVWFSDWAMPSVMRVNKRTGKDRVRLQGSMLKPSSLVVVHPLAKPGADPCLYQNGGCEHICKKRLGTAWCSCREGFMKASDGKTCLALDGHQLLAGGEVDLKNQVTPLDILSKTRVSEDNITESQHMLVAEIMVSDQDDCAPVGCSMYARCISEGEDATCQCLKGFAGDGKLCSDIDECEMGVPVCPPASSKCINTEGGYVCRCSEGYQGDGIHCLDIDECQLGEHSCGENASCTNTEGGYTCMCAGRLSEPGLICPDSTPPPHLREDDHHYSVRNSDSECPLSHDGYCLHDGVCMYIEALDKYACNCVVGYIGERCQYRDLKWWELRHAGHGQQQKVIVVAVCVVVLVMLLLLSLWGAHYYRTQKLLSKNPKNPYEESSRDVRSRRPADTEDGMSSCPQPWFVVIKEHQDLKNGGQPVAGEDGQAADGSMQPTSWRQEPQLCGMGTEQGCWIPVSSDKGSCPQVMERSFHMPSYGTQTLEGGVEKPHSLLSANPLWQQRALDPPHQMELTQ
modifications: Pro-epidermal growth factor
notes: growth factor ligand, 20 ng/ml
RANKL expression in medium devoid of the factor: lower levels | role in DLX5 transcription: required
